B1: S131-147 (peptide)
peptide: CEFQFCNDPFLGVYYHK
modifications: not checked
B2: Positive control peptide … (unlabelled) (peptide)
peptide: EKKYFAATKFEPLAARL
modifications: not checked
B3: S166-182 (peptide)
peptide: CTFEYVSQPFLMDLEGK
modifications: not checked
B4: S231-243 (peptide)
peptide: IGINITRFQTLLA
modifications: not checked
B5: S1009-1023 (peptide)
peptide: TQQLIRAAEIRASAN
modifications: not checked
B6: S425-440 (peptide)
peptide: LPDDFTGCVIAWNSNN
modifications: not checked
B7: S798-810 (peptide)
peptide: GGFNFSQILPDPS
modifications: not checked
B8: S1182-1196 (peptide)
peptide: EIDRLNEVAKNLNES
modifications: not checked
B9: Positive control peptide … (unlabelled) (peptide)
peptide: AAATAGTTVYGAKAA
modifications: not checked
B10: S39-54 (peptide)
peptide: PDKVFRSSVLHSTQDL
modifications: not checked
B11: S322-338 (peptide)
peptide: PTESIVRFPNITNLCPF
modifications: not checked
B12: S238-254 (peptide)
peptide: FQTLLALHRSYLTPGDS
modifications: not checked
B13: S829-845 (peptide)
peptide: ADAGFIKQYGDCLGDIA
modifications: not checked
B14: S749-762 (peptide)
peptide: CSNLLLQYGSFCTQ
modifications: not checked

Target: T1, HLA-DPA1*01:03/DPB1*04:01 soluble heterodimer (human), P20036
T1 chain 1: not shown
T1 chain 2: not shown
Test: FP competition with FITC probe, HLA-sDM, average
In the case of B1, the IC50 is reported as 58 nM.
B2 was tested, and the IC50 was 30 nM.
Work on B3 yielded an IC50 of 11 nM.
B4 gave an IC50 of 510 nM.

The binders below were run against HLA-DQA1*01:02/DQB1*06:02 soluble heterodimer (human), P01920 (assay: FP competition with FITC probe, HLA-sDM, average).
With B5 the IC50 was 520 nM.
B6 showed an IC50 of 390 nM.
Binder B7 has an IC50 of 1200 nM.
B8 was tested, and the IC50 was greater than 50000 nM.
In the case of B9, the IC50 is reported as 1100 nM.
For B10, the IC50 was 1600 nM.
In the case of B4, the IC50 is reported as greater than 50000 nM.

Target: T2, HLA-DRA*01:01/DRB1*15:01 soluble heterodimer (human)
T2 chain 1: not shown
T2 chain 2: not shown
Test: FP competition with FITC probe, HLA-sDM, average
B11 was tested, and the IC50 was 26 nM.
Work on B12 yielded an IC50 of 140 nM.
Binder B13 has an IC50 of 56 nM.
For B14, the IC50 was 270 nM.
